Test results: the supplement of paper PMC5998384

Legend:
HeLa Kyoto [1] = assay: melting temperature (median over replicates), in situ; higher = more thermally stable
HeLa Kyoto [2] = assay: solubility change mitosis vs G1/S (difference of NP-40 vs SDS log2 ratios) (log2 ratio difference); higher = more soluble in mitosis
HeLa Kyoto [3] = assay: solubility in G1/S (NP-40 vs SDS abundance) (log2 ratio); higher = more soluble; conditions: cell cycle stage: G1/S
HeLa Kyoto [4] = assay: thermal stability score vs G1/S (z-score of summed log2 fold changes over temperatures); higher = more thermally stable than in G1/S
[5] = cell cycle stage: early G1 (4.5 h after nocodazole release)
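Throughout, for melting temperature (median over replicates), in situ: HeLa Kyoto cells synchronized by double thymidine or nocodazole block, proteins quantified by TMT10plex mass spectrometry, three independent biological replicates.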
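Throughout, for solubility change mitosis vs G1/S (difference of NP-40 vs SDS log2 ratios): synchronized HeLa Kyoto cells (double thymidine block for G1/S, nocodazole release for mitosis), protein amounts in NP-40 versus SDS lysates quantified by mass spectrometry, three biological replicates.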
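Throughout, for solubility in G1/S (NP-40 vs SDS abundance): HeLa Kyoto cells arrested at G1/S by double thymidine block, proteins quantified by TMT10plex mass spectrometry in mild NP-40 versus SDS extracts, three biological replicates.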
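Throughout, for thermal stability score vs G1/S (z-score of summed log2 fold changes over temperatures): synchronized HeLa Kyoto cells, proteins quantified by TMT10plex mass spectrometry, three biological replicates, mitosis taken 0.5 h after nocodazole release, G1/S directly after double thymidine block.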

Sequence	melting temperature (HeLa Kyoto [1]; cell cycle stage: G1/S)	melting temperature (HeLa Kyoto [1]; cell cycle stage: mitosis)	solubility change mitosis (log2) (HeLa Kyoto [2])	solubility in G1/S (log2) (HeLa Kyoto [3])	thermal stability score (HeLa Kyoto [4]; [5])	thermal stability score (HeLa Kyoto [4]; cell cycle stage: mitosis)
MAAASAVSVLLVAAERNRWHRLPSLLLPPRTWVWRQRTMKYTTATGRNITKVLIANRGEIACRVMRTAKKLGVQTVAVYSEADRNSMHVDMADEAYSIGPAPSQQSYLSMEKIIQVAKTSAAQAIHPGCGFLSENMEFAELCKQEGIIFIGPPPSAIRDMGIKSTSKSIMAAAGVPVVEGYHGEDQSDQCLKEHARRIGYPVMIKAVRGGGGKGMRIVRSEQEFQEQLESARREAKKSFNDDAMLIEKFVDTPRHVEVQVFGDHHGNAVYLFERDCSVQRRHQKIIEEAPAPGIKSEVRKKLGEAAVRAAKAVNYVGAGTVEFIMDSKHNFCFMEMNTRLQVEHPVTEMITGTDLVEWQLRIAAGEKIPLSQEEITLQGHAFEARIYAEDPSNNFMPVAGPLVHLSTPRADPSTRIETGVRQGDEVSVHYDPMIAKLVVWAADRQAALTKLRYSLRQYNIVGLHTNIDFLLNLSGHPEFEAGNVHTDFIPQHHKQLLLSRKAAAKESLCQAALGLILKEKAMTDTFTLQAHDQFSPFSSSSGRRLNISYTRNMTLKDGKNNVAIAVTYNHDGSYSMQIEDKTFQVLGNLYSEGDCTYLKCSVNGVASKAKLIILENTIYLFSKEGSIEIDIPVPKYLSSVSSQETQGGPLAPMTGTIEKVFVKAGDKVKAGDSLMVMIAMKMEHTIKSPKDGTVKKVFYREGAQANRHTPLVEFEEEESDKRESE [MCCC1]	51.4 °C	51.3 °C	-0.125	-0.0598	-0.414	-0.17
MAAASGSVLQRCIVSPAGRHSASLIFLHGSGDSGQGLRMWIKQVLNQDLTFQHIKIIYPTAPPRSYTPMKGGISNVWFDRFKITNDCPEHLESIDVMCQVLTDLIDEEVKSGIKKNRILIGGFSMGGCMAIHLAYRNHQDVAGVFALSSFLNKASAVYQALQKSNGVLPELFQCHGTADELVLHSWAEETNSMLKSLGVTTKFHSFPNVYHELSKTELDILKLWILTKLPGEMEKQK [LYPLAL1]	52 °C	52.3 °C	-0.0182	0.361	1.32	0.974
MAAASPLRDCQAWKDARLPLSTTSNEACKLFDATLTQYVKWTNDKSLGGIEGCLSKLKAADPTFVMGHAMATGLVLIGTGSSVKLDKELDLAVKTMVEISRTQPLTRREQLHVSAVETFANGNFPKACELWEQILQDHPTDMLALKFSHDAYFYLGYQEQMRDSVARIYPFWTPDIPLSSYVKGIYSFGLMETNFYDQAEKLAKEALSINPTDAWSVHTVAHIHEMKAEIKDGLEFMQHSETFWKDSDMLACHNYWHWALYLIEKGEYEAALTIYDTHILPSLQANDAMLDVVDSCSMLYRLQMEGVSVGQRWQDVLPVARKHSRDHILLFNDAHFLMASLGAHDPQTTQELLTTLRDASESPGENCQHLLARDVGLPLCQALVEAEDGNPDRVLELLLPIRYRIVQLGGSNAQRDVFNQLLIHAALNCTSSVHKNVARSLLMERDALKPNSPLTERLIRKAATVHLMQ [TTC38]	53.1 °C	53.1 °C	-0.0718	0.319	-0.435	-0.408
MAADISESSGADCKGDPRNSAKLDADYPLRVLYCGVCSLPTEYCEYMPDVAKCRQWLEKNFPNEFAKLTVENSPKQEAGISEGQGTAGEEEEKKKQKRGGRGQIKQKKKTVPQKVTIAKIPRAKKKYVTRVCGLATFEIDLKEAQRFFAQKFSCGASVTGEDEIIIQGDFTDDIIDVIQEKWPEVDDDSIEDLGEVKK [DENR]	56.9 °C	58.6 °C	0.142	0.481	0.263	0.467
MAAEAADLGLGAAVPVELRRERRMVCVEYPGVVRDVAKMLPTLGGEEGVSRIYADPTKRLELYFRPKDPYCHPVCANRFSTSSLLLRIRKRTRRQKGVLGTEAHSEVTFDMEILGIISTIYKFQGMSDFQYLAVHTEAGGKHTSMYDKVLMLRPEKEAFFHQELPLYIPPPIFSRLDAPVDYFYRPETQHREGYNNPPISGENLIGLSRARRPHNAIFVNFEDEEVPKQPLEAAAQTWRRVCTNPVDRKVEEELRKLFDIRPIWSRNAVKANISVHPDKLKVLLPFIAYYMITGPWRSLWIRFGYDPRKNPDAKIYQVLDFRIRCGMKHGYAPSDLPVKAKRSTYNYSLPITVKKTSSQLVTMHDLKQGLGPSGTSGARKPASSKYKLKDSVYIFREGALPPYRQMFYQLCDLNVEELQKIIHRNDGAENSCTERDGWCLPKTSDELRDTMSLMIRQTIRSKRPALFSSSAKADGGKEQLTYESGEDEEDEEEEEEEEEDFKPSDGSENEMETEILDYV [GTF3C5]	47.8 °C	49.4 °C	-0.0211	-0.0747	2.34	4.79
